In US20060229272A1 (published 2006):
No end group written: not given here.

T1: HGPRBMY11 polypeptide (human G-protein coupled receptor, SEQ ID NO:2) (human, UniProt Q9NS75 17-346)
T1 construct: 330 amino acids; also called GPCR74; GPCR 81
T1 sequence: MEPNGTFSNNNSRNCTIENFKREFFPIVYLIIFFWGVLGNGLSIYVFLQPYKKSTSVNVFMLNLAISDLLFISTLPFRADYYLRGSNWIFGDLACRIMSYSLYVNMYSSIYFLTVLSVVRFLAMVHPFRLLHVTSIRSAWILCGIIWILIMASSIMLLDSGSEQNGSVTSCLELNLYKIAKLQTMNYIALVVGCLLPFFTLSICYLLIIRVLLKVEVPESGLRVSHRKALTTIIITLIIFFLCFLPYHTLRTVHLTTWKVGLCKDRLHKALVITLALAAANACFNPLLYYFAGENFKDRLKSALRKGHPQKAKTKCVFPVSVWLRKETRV


Biological target: T1, HGPRBMY11 polypeptide (human G-protein …)
Test: phage display panning of M13KE peptide libraries on CHO-K1 cells transfected with HGPRBMY11, after preadsorption on integrin and parental cells; bound phage eluted and sequenced
Protocol: On the day of panning, growth medium was discarded and cells were washed with 10 ml PBS by allowing the buffer to flow over the cells. The PBS was removed and 10 ml Tris-EDTA detaching buffer (Gibco Cat. # 13150-016; no trypsin) was added for 2 min. Plates were tapped and/or pipetted up and down to detach cells. This was done quickly to minimize the exposure of the cells to this reagent. Cells were pelleted by centrifugation at 3 K, and then washed with 20 ml PBS. Cells were resuspended cells in PBS with 2% milk blocking agent plus protease inhibitor (EDTA-free; Roche Cat. # 1 873 580). For each library, cell suspensions of ˜500 ul were used. Cells were blocked for 30-60 min with gentle rocking at room temperature. The integrin-coated wells were washed 3× in PBST, then blocked with 2% BSA in PBS for 30 min or more. To preadsorb against integrin, input phage was added to the integrin-coated wells, and incubated for 30 min or more.
At this stage, the blocked parental cells were divided into the required number of aliquots (500 ul aliquot/library). The phage supernatants were added from the integrin-preadsorption step. Preadsorption against the parental cells was carried out for 30 min or more with gentle rocking. […]
Standard procedures were used. […] Colonies were grown in liquid medium and analyzed by standard sequencing procedures.

| Binder | binding result |
| --- | --- |
| LFASSDWSSFPVLVF (also: displayed fused to phage coat protein, not free peptide, In the assay it stood fused to the phage coat protein, not as a free peptide; The synthesis of free N-acetyl peptide amides is described only as a method; also called Peptide Modulator of HGPRBMY11) [LFASSDWSSFPVLVF (SEQ ID NO:81)] | binds |
| THGFGHRVWSVPLRS (In the assay it stood fused to the phage coat protein; also called Peptide Modulator of HGPRBMY11) [THGFGHRVWSVPLRS (SEQ ID NO:96)] | binds |
